The values that follow come from patent US20170152307A1.

Experiment [1] concerns the target tau 48-71 (human). The experiment is described as follows: peptide ELISA, biotinylated peptide on streptavidin plate, IgG titrated (Example 14). Conditions: remark: other sources report otherwise. (In general: In an ELISA, binding on a coated surface is turned into a signal by an enzyme label.)
In experiment [2] the target is recombinant tau (human), P10636. The experiment is described as follows: ELISA, recombinant tau coated on the plate, IgG titrated (Example 7). Conditions: remark: other sources report otherwise.
Chain of recombinant tau (human), P10636 (P10636 other isoform, or with tags, fused parts or gaps limits assumed): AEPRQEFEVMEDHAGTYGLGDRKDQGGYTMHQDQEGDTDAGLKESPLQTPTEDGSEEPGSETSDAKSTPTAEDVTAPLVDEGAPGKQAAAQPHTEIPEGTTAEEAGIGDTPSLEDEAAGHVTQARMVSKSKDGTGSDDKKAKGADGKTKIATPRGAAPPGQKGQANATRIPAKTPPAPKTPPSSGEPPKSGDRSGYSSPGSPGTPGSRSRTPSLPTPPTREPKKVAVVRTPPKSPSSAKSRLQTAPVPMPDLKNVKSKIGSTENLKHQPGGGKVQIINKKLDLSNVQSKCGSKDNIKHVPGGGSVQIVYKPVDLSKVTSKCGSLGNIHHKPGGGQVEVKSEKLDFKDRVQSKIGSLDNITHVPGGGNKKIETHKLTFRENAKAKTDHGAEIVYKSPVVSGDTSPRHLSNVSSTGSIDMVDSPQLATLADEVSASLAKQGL

Chain of tau 48-71 (human) (peptide, as listed by the source limits assumed, form in doubt): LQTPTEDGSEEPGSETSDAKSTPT

B1: CBTAU-28.1 (antibody, human IgG1, V domains shown)
VH: QVQLQQSGAEVKKPGESLKISCEASGYSFTNYWIGWVRQMPGKGLEWMGIIYPGDSDTRYSPPFQGQVTITADRSITTAYLEWSSLKASDTAMYYCARVGRPSKGGWFDPWGQGTLVTVSS
VL: DIQMTQSPDSLAVSLGERATINCESSQTLLYSSNEKNYLAWYQQKPGQPPKLLISWASTPESGVPDRFSGSGSGTSFTLTISSLQAEDVAVYYCQQYYNSPYTFGQGTRLEIK
modifications: here or on the partner: N-terminal biotin not carried in the letters; no phosphorylation
One may read the EC50 (read off the curve) as the concentration giving half of the maximal effect. As for B1, the figures for the EC50 (read off the curve) in experiment [1] and in experiment [2] were 0.06 µg/mL and 0.008 µg/mL, respectively.
